From patent US20240002498A1 (TENEOBIO, published 2024)
Numbering of substitutions follows the chain as printed. One block for each binder: values may come before it.

Key:
[1] = biological target: T1, human Folate Receptor Alpha (FOLR1) on cells (human, UniProt P15328 25-234); experiment: cell binding, IGROV-1 cells
T1 construct: whole, on cells; Endogenous on IGROV-1, OVCAR-3, SKOV-3, HT-29 cells; transfected on CHO cells; the cell is named under assay; also called FRα; FRa

[2] = biological target: T1, human Folate Receptor Alpha (FOLR1) on …; experiment: cell binding, OVCAR-3 cells
[3] = biological target: T1, human Folate Receptor Alpha (FOLR1) on …; experiment: flow cytometry, IGROV-1 cells
recombinant human FOLR1 = recombinant human FOLR1 (human, UniProt P15328 25-234); experiment: BLI, Octet QK-384, recombinant human FOLR1
Description: As used herein, the “Kd” or “Kd value” refers to a dissociation constant determined by BioLayer Interferometry, using an Octet QK384 instrument (Fortebio Inc., Menlo Park, CA) in kinetics mode. For example, anti-mouse Fc sensors are loaded with mouse-Fc fused antigen and then dipped into antibody-containing wells to measure concentration dependent association rates (kon). Antibody dissociation rates (koff) are measured in the final step, where the sensors are dipped into wells containing buffer only. The Kd is the ratio of koff/kon. (For further details see, Concepcion, J, et al., Comb Chem High Throughput Screen, 12 (8), 791-800, 2009).
Table 17 summarizes affinity and epitope bin information for anti-FOLR1 heavy chain antibodies (HCAbs). Column 1 indicates the clone ID of the HCAb. Column 2 indicates the affinity of the HCAb to recombinant human FOLR1 as measured by Bio-layer interferometry (BLI) using an Octet QK-384. Column 3 indicates the epitope bin of HCAb as determined by a competition BLI binding experiment using an Octet QK-384.

cyno FOLR1 on CHO cells [4] = biological target: T2, cyno FOLR1 on CHO cells (cyno (Cynomolgus macaque), UniProt A0A2K5U044 25-234); experiment: cell binding, CHO cells stably expressing cyno FOLR1
T2 construct: whole, on cells; also called cyFOLR1

[5] = biological target: T1, human Folate Receptor Alpha (FOLR1) on …; experiment: cell binding, CHO cells stably expressing human FOLR1
cyno FOLR1 on CHO cells [6] = biological target: T2, cyno FOLR1 on CHO cells; experiment: flow cytometry, CHO cells stably expressing cyno FOLR1
[7] = biological target: T1, human Folate Receptor Alpha (FOLR1) on …; experiment: flow cytometry, CHO cells stably expressing human FOLR1
CHO_huFOLR2 = biological target: T3, CHO_huFOLR2 (human, UniProt P14207); experiment: flow cytometry on CHO cells stably expressing human FOLR2, MFI fold over background
T3 construct: stably expressed on CHO cells; also called human FOLR2 on CHO cells; folate receptor beta
Description: Anti-FOLR1 HCAb binding to CHO cells stably expressing human FOLR2 (also known as folate receptor beta, FRβ), and CHO cells stably expressing human IZUMO1R (also known as folate receptor delta, FOLR4, FRδ, JUNO) was analyzed for a number of different clones. Data are presented in FIG. 2, panels A-B, as MFI fold over background. Insets show binding of positive control anti-FOLR2 and anti-IZUMO1R antibodies, respectively, in dark grey, compared to the respective isotype control in light grey.

[8] = biological target: T4, FOLR3 (folate receptor gamma) (UniProt P41439 23-245, limits assumed); experiment: BLI (Octet)
T4 construct: also called FRγ

mouse FOLR1 on CHO cells = biological target: T5, mouse FOLR1 on CHO cells (mouse, UniProt P35846 25-232); experiment: cell binding, CHO cells stably expressing mouse FOLR1
T5 construct: whole, on cells; also called msFOLR1
T5 sequence (P35846 25-232): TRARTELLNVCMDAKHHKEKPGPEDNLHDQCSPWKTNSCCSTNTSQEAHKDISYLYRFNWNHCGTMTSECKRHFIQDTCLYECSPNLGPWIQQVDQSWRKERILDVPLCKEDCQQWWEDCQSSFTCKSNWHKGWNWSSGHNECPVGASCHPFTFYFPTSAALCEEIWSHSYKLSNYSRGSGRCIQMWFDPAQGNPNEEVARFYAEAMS

T2 sequence (A0A2K5U044 entry or part of it): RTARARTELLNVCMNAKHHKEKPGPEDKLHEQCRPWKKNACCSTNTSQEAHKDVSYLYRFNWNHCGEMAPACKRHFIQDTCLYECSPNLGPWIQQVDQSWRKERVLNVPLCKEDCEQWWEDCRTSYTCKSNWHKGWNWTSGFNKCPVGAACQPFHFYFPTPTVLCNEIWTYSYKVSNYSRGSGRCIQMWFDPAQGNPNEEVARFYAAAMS
T1 sequence (P15328 25-234): as the sequence (A0A2K5U044 entry or part of it) above, with T2I, R4W, K37R, P146A, Y171H counted along it
recombinant human FOLR1, sequence (P15328 25-234 limits assumed): as the sequence (A0A2K5U044 entry or part of it) above, with T2I, R4W, K37R, P146A, Y171H counted along it
T3 sequence (P14207 17-230 limits assumed): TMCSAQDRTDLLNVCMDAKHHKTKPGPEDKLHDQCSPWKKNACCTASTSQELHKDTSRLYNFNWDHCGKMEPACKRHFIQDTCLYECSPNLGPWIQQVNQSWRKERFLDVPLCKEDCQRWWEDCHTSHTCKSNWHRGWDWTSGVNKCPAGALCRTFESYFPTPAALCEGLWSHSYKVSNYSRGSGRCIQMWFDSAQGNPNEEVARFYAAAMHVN
T4 sequence (P41439 23-245 limits assumed): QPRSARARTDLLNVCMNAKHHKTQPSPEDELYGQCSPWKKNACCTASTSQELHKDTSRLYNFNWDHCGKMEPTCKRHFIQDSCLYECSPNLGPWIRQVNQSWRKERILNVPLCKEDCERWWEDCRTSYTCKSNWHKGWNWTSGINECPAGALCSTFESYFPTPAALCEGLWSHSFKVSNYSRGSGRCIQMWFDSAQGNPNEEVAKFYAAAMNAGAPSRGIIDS

B1: anti-FOLR1 heavy chain antibody (HCAb, UniAb) clone ID 352317 (antibody, V domains shown)
VH: EVQLVESGGGLVKPGGSLRLSCAASGFTFSSYSMNWVRQAPGKGLEWVSSISSGSSYIYYADSVKGRFTISRDNAKNSLYLQMNSLRAEDTAVYYCARDVTSGIAAAGSAFNIRGQGTLVTVSS
notes: Heavy chain-only antibody (no light chain), F14 family
- EC50 [1]: 3.9 nM
- EC50 [2]: 3.3 nM
- fold over background MFI [3]: 711 fold over background
- Kd (recombinant human FOLR1): 8.7 nM
- EC50 (cyno FOLR1 on CHO cells [4]): 5 nM
- EC50 [5]: 5.1 nM
- fold over background MFI (cyno FOLR1 on CHO cells [6]): 465 fold over background
- fold over background MFI [7]: 1220 fold over background
- binding result (CHO_huFOLR2): binds

B2: anti-FOLR1 heavy chain antibody (HCAb, UniAb) clone ID 352477 (antibody, V domains shown)
VH: B1 VH with K76R
notes: as for B1
- EC50 [1]: 5 nM
- EC50 [2]: 2.4 nM
- fold over background MFI [3]: 1960 fold over background
- Kd (recombinant human FOLR1): 12.5 nM
- EC50 (cyno FOLR1 on CHO cells [4]): 4.2 nM
- EC50 [5]: 4.2 nM
- fold over background MFI (cyno FOLR1 on CHO cells [6]): 362 fold over background
- fold over background MFI [7]: 1590 fold over background
- binding result (CHO_huFOLR2): binds

B3: anti-FOLR1 heavy chain antibody (HCAb, UniAb) clone ID 358474 (antibody, V domains shown)
VH: B1 VH with V93I
notes: as for B1
- binding result [8]: no binding
- EC50 [1]: 4 nM
- EC50 [2]: 1.2 nM
- Kd (recombinant human FOLR1): 7.62 nM
- EC50 (cyno FOLR1 on CHO cells [4]): 4.3 nM
- EC50 [5]: 4 nM
- EC50 (mouse FOLR1 on CHO cells): 2.6 nM
- fold over background MFI (cyno FOLR1 on CHO cells [6]): 2350 fold over background
- fold over background MFI [7]: 2240 fold over background

B5: anti-FOLR1 heavy chain antibody (HCAb, UniAb) clone ID 352368 (antibody, V domains shown)
VH: B1 VH with T28N, S30R, Y32F, S33G, N35T, V37L, S109A
notes: as for B1
- EC50 [1]: 4.1 nM
- EC50 [2]: 3.1 nM
- fold over background MFI [3]: 548 fold over background
- Kd (recombinant human FOLR1): 32.9 nM
- EC50 (cyno FOLR1 on CHO cells [4]): 4.3 nM
- EC50 [5]: 3.8 nM
- fold over background MFI (cyno FOLR1 on CHO cells [6]): 179 fold over background
- fold over background MFI [7]: 1230 fold over background
- binding result (CHO_huFOLR2): binds

B6: anti-FOLR1 heavy chain antibody (HCAb, UniAb) clone ID 358433 (antibody, V domains shown)
VH: B1 VH with T28I
notes: as for B1
- EC50 [1]: 4.1 nM
- EC50 [2]: 1.3 nM
- Kd (recombinant human FOLR1): 6.34 nM
- EC50 (cyno FOLR1 on CHO cells [4]): 3.1 nM
- EC50 [5]: 5.9 nM
- EC50 (mouse FOLR1 on CHO cells): 3.6 nM
- fold over background MFI (cyno FOLR1 on CHO cells [6]): 2530 fold over background
- fold over background MFI [7]: 1980 fold over background

The next binders have a lower EC50 [1] than those just listed; values first:

- EC50 [1]: 3.6 nM
- EC50 [2]: 1.1 nM
- Kd (recombinant human FOLR1): 6.82 nM
- EC50 (cyno FOLR1 on CHO cells [4]): 3 nM
- EC50 [5]: 4.6 nM
- EC50 (mouse FOLR1 on CHO cells): 2.5 nM
- fold over background MFI (cyno FOLR1 on CHO cells [6]): 2520 fold over background
- fold over background MFI [7]: 2080 fold over background
B4: anti-FOLR1 heavy chain antibody (HCAb, UniAb) clone ID 358457 (antibody, V domains shown)
VH: B1 VH with K13Q, A88D
notes: as for B1

- binding result [8]: no binding
- EC50 [1]: 3.3 nM
- EC50 [2]: 1.5 nM
- Kd (recombinant human FOLR1): 6.78 nM
- EC50 (cyno FOLR1 on CHO cells [4]): 3.4 nM
- EC50 [5]: 4.2 nM
- EC50 (mouse FOLR1 on CHO cells): 3.2 nM
- fold over background MFI (cyno FOLR1 on CHO cells [6]): 1520 fold over background
- fold over background MFI [7]: 1230 fold over background
B7: anti-FOLR1 heavy chain antibody (HCAb, UniAb) clone ID 358454 (antibody, V domains shown)
VH: B1 VH with K13Q, Y95F
notes: as for B1

- EC50 [1]: 2.8 nM
- EC50 [2]: 2.8 nM
- fold over background MFI [3]: 646 fold over background
- Kd (recombinant human FOLR1): 34.8 nM
- EC50 (cyno FOLR1 on CHO cells [4]): 2.7 nM
- EC50 [5]: 5.5 nM
- fold over background MFI (cyno FOLR1 on CHO cells [6]): 198 fold over background
- fold over background MFI [7]: 944 fold over background
- binding result (CHO_huFOLR2): no binding (tested: 100 nM)
B8: anti-FOLR1 heavy chain antibody (HCAb, UniAb) clone ID 352391 (antibody, V domains shown)
VH: EVQLVESGGGLVQPGGSLRLSCAASGFSFSSYSMKWVRQAPGKGLEWVSYISSSSDTIEYADSVKGRFTISRDNAKNSLYLQMNSLRDEDTAVYYCASVGLDFDYRGQGTLVTVSS
notes: Heavy chain-only antibody (no light chain), F18 family
